The source of these data is US20250221936A1, “ENGINEERED HEMICHANNELS, ENGINEERED VESICLES, AND USES THEREOF” (VIRGINIA TECH INTELLECTUAL PROPERTIES, INC., priority 2018, published 2025).

Assay [1] concerns the target T1, Cx43 CT-KK/QQ (Rattus norvegicus, UniProt P08050, K345Q/K346Q).
T1 construct: pGEX-6-P2 Cx43 CT amino acids 255-382; GST (N, cleaved yes); made in house; host or cells: E. coli BL21
The experiment in a line: Surface plasmon resonance, Cx43 CT-KK/QQ analyte. Conditions: biotin-peptide immobilized on streptavidin chip. In kind it is binding. The text has this: Peptides were synthesized and quality checked for fidelity and purity using High Performance Liquid Chromatography and mass spectrometry (LifeTein, Hillsborough, NJ). Biotinylated peptides were designed for surface plasmon resonance experiments. Glutathione-S-Transferase (GST) fusion protein constructs composed of the Cx43-CT (pGEX-6-P2 Cx43 CT amino acids 255-382), ZO-1 PDZ1, PDZ2 and PDZ3 were isolated and purified from isopropyl-b-D-thiogalactoside (IPTG)-induced BL21 bacteria using standard procedures, described in references 13, 14, 20. The pGEX6p2-Cx43 CT plasmid was obtained from Prof. Paul L. Sorgen (University of Nebraska Medical Center, USA). Cx43 CT mutant (Cx43 CT-KK/QQ; amino acids Lys345 Lys346 to Gln 345 Gln 346) was developed by site-directed mutagenesis of the pGEX6p2-Cx43 CT plasmid (Agilent technologies, QuikChange II Site-Directed Mutagenesis Kit). The mutation was verified by sequencing. For surface plasmon resonance experiments, the GST was removed using PreScission protease, yielding Cx43 CT protein (wild-type or mutant).
Efficacy of the interaction of each alpha CT1 variant with Cx43 CT or Cx43 CT-KK/QQ was tested using surface plasmon resonance (SPR) as described previously 20. In brief, SPR experiments were performed using a Biacore T200 (GE Healthcare). Equal amounts (response units/RU) of biotin-alpha CT1 variants were immobilized on each flow cell of a streptavidin-coated sensor chip (Biacore Inc) using immobilization buffer (in mM: 10 HEPES, 1 EDTA, 100 NaCl, 0.005% Tween-20) at pH 7.4. Measurements with wild-type (wt) Cx43 CT and mutant Cx43 CT-KK/QQ analytes were done in running buffer (in mM: 10 HEPES, 100 NaCl, pH 7.4) at a flow rate of 30 μl/min. Binding of analytes were verified at different concentrations, in random order (injection volume 120 μl). Interacting proteins were then unbound by injection of […] regeneration buffer (50 mM NaOH and 1 M NaCl) at a flow rate of 10 μl/min. Background levels were obtained from a reference cell containing a biotin-control peptide in which the reversed sequence of the last 9 amino acids of Cx43 was fused to biotin-antennapedia. The RU values obtained with biotin-control peptide were subtracted from the RU values obtained with the different biotin-alphaCT1 variants (wild-type or mutant) to generate the different response curves.
(SPR reads the build-up and loss of mass on a sensor chip optically.)

Assay [2] deals with T2, ZO-1 PDZ2 (Homo sapiens, UniProt Q07157).
T2 construct: the second of the three PDZ (PDZ2) domains of ZO-1; made in house; host or cells: E. coli BL21
T2 sequence (Q07157 186-264 limits assumed): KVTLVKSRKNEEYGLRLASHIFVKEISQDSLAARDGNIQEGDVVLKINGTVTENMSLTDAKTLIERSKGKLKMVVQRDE
The experiment in a line: Protein thermal shift assay, ZO-1 PDZ2. Type of assay: binding. Conditions: 500 μg/ml protein, 25-100 μM peptide. On the procedure: Thermal stability of recombinant GST-PDZ2 or Cx43 CT in the presence or absence of peptides was determined in a 96-well format. Each assay well was composed of 500 μg/ml protein, 25-100 μM of each peptide in PBS buffer, pH7.4. All assays were performed independently six times. Samples were generally prepared in 96-well plates at final volumes of 20 μL. The fluorescent dye SYPRO Orange (5000× concentrate in DMSO, ThermoFisher, S6650) was added to a final concentration of 8X. Reactions were run on QuantStudio 6 Flex Real-Time PCR system (Applied Biosystems, part of Life Technologies Corporation, CA) according to the manufacturer's recommendations using a melt protocol in 0.05-degree/see increments from 25° C. to 95° C. The Reporter Dye was “ROX” and quencher Dye and passive reference were selected as “None” for the melt curve according to manufacturer's instructions. The data were analyzed using Protein Thermal Shift™ Software v1.3 package (Applied Biosystems, CA).

For assay [3], the target named is T3, PKC-ε phosphorylation of Cx43-CT substrate at Ser368 (Rattus norvegicus, UniProt P08050).
T3 construct: substrate (Cx43-CT: amino acids 255 to 382); GST (N); made in house; host or cells: E. coli BL21 (Cx43 CT); PKC-ε purchased (Life, 37717L)
T3 sequence (P08050 255-382): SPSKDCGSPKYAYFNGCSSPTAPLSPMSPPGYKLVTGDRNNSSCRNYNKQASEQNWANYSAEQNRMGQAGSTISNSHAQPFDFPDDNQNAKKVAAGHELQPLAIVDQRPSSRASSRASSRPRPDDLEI
The experiment in a line: PKC-ε Cx43 CT S368 phosphorylation assay. Type of assay: biochemical. To be noted: peptides at 20 μM. On the procedure:
PKC assay conditions were used to evaluate the PKC-ε phosphorylation of Cx43-CT substrate at Ser368 as we have described previously, with modifications 11. 400 ng/ml […] (Life, 37717L, Carlsbad, CA) was pre-diluted in enzyme dilution buffer (10 mM HEPES pH7.4, 0.01% CHAPS and 5 mM DTT) and assayed in 20 mM HEPES pH7.4, 10 mM/L MgCl2, 0.1 mM EGTA, 1× lipid mix (200 μg/ml phosphatidylserine (Avanti Polar Lipids 840032C),^20 μg/ml Diacylglycerol (Avanti Polar Lipids), 1 mM HEPES pH7.4, 0.03% CHAPS), 500 µM ATP (Sigma, A6419) and 14 μg/ml Cx43-CT substrate. Kinase assay buffer was supplemented with peptides to produce final concentrations of the reaction constituents, as indicated in figure legends. The mixture was incubated at 37° C. for 12 minutes and quenched by addition of LDS sample loading buffer (Bio Rad, 1610791). “XT sample buffer” is what was shown on the product label, whereas the component is similar as regular LDS buffer, containing about 5-10% lithium dodecyl sulphate. The reaction was Western blotted for pS368 Cx43 using the Phospho-Connexin43 (Ser368) antibody from Cell Signaling. Proteins were eluted off by stripping buffer (Millipore 2504) and re-probed for total Cx43 using the Sigma anti-rabbit antibody. Percent phosphorylation (% P) was quantified using Equation 1 and normalized with control group (PKC+, no peptide added).

“Also recorded” adds a separate entry of the source.

T1 sequence (P08050 255-382 K345Q/K346Q): as the sequence (P08050 255-382) above, with K91Q, K92Q counted along it

As for “RQPKIWFPNRRKPWKK RPRPAALAI (RQPKIWFPNRRKPWKKRPRPAALAI) [M1 AALAI]”, in assay [1], the “SPR binding to Cx43 CT-KK/QQ” value is reported as “unable mediate interactions”. Moreover, in assay [2], the “PDZ2 melt temperature (Tm)” value is “did not alter the melt temperature of PDZ2”. For the same sequence, the “Cx43 S368 phosphorylation” value in assay [3] is listed as “neither M1 AALAI (SEQ ID NO: 134), M2 AALEI (SEQ ID NO: 135) nor M3 DDLAI (SEQ ID NO: 136) increased Cx43 S368 phosphorylation”.
RQPKIWFPNRRKPWKKRPRPDDLAI [M3 DDLAI]: in assay [1], the “SPR binding to Cx43 CT-KK/QQ” value is “unable mediate interactions”. Also, the “PDZ2 melt temperature (Tm)” value in assay [2] is “evidence of significant interaction with its ZO-1-binding domain”; in assay [2] (listed as M3), “significantly increase the Tm of”. Moreover, in assay [3], the “Cx43 S368 phosphorylation” value is “neither M1 AALAI (SEQ ID NO: 134), M2 AALEI (SEQ ID NO: 135) nor M3 DDLAI (SEQ ID NO: 136) increased Cx43 S368 phosphorylation”.
Take RQPKIWFPNRRKPWKKRPRPDDLE [alpha CT1-I]: in assay [2], the “PDZ2 melt temperature (Tm)” value is given as “PDZ2 interaction incompetent”. The “Cx43 S368 phosphorylation” value in assay [3] is “significant increase in PKC ε-mediated phosphorylation of Cx43 CT”.
For RQPKIWFPNRRKPWKKRPRPDDLEI [alpha CT1], the “SPR binding to Cx43 CT-KK/QQ” value in assay [1] is “unable mediate interactions”. The “PDZ2 melt temperature (Tm)” value in assay [2] is “significantly increase the Tm of; also recorded: increased the melt temperature of PDZ2 in a dose-dependent manner”. Besides, the “ability to induce S368 phosphorylation” value in assay [3] (greater than PKC ε+plus control, M1 AALAI or M4) is given as “about 3 fold”.
